Sequences and labels used below:
T1: hTBPΔQ40, hTBP lacking the Poly-glutamine region (amino acids 50-102), fused to the N-terminal fragment of … (human, UniProt P20226 1-339, lacking the Poly-glutamine region (amino acids 50-102))
T1 construct: made by site-directed mutagenesis; source: HEK293, transfected, in living cells
T1 sequence (looked up): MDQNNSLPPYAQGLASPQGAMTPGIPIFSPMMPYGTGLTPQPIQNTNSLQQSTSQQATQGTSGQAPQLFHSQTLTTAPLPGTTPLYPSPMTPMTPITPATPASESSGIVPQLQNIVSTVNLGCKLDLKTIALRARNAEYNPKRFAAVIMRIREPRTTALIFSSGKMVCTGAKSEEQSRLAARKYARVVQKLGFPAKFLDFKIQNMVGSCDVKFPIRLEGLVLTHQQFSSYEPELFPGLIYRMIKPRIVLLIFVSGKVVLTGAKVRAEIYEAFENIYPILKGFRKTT

B1: AntpΔN, Antp lacking the N-terminal region (amino acids 1-269), fused to the C-terminal fragment of Venus (domain or fragment)
chain: not shown
notes: Antennapedia (Antp) lacking the N-terminal region (amino acids 1-269); source: HEK293, transfected, in living cells
B2: Antennapedia (Antp), fused to the C-terminal fragment of Venus (natural protein)
chain: not shown
notes: Antennapedia (Antp) Hox protein; also called VCAntp; Antp WT; source: HEK293, transfected, in living cells
B3: AntpΔHD, Antp without the YPWM motif and homeodomain (amino acids 245-363), fused to the C-terminal fragment of Venus (natural protein, Drosophila, UniProt P02833 1-378, looked up)
chain: MTMSTNNCESMTSYFTNSYMGADMHHGHYPGNGVTDLDAQQMHHYSQNANHQGNMPYPRFPPYDRMPYYNGQGMDQQQQHQVYSRPDSPSSQVGGVMPQAQTNGQLGVPQQQQQQQQQPSQNQQQQQAQQAPQQLQQQLPQVTQQVTHPQQQQQQPVVYASCKLQAAVGGLGMVPEGGSPPLVDQMSGHHMNAQMTLPHHMGHPQAQLGYTDVGVPDVTEVHQNHHNMGMYQQQSGVPPVGAPPSGGEGDEITPPNSPQ
notes: Antennapedia (Antp) without the HD (amino acids 245-363); the text calls it the YPWM-HD deletion; source: HEK293, transfected, in living cells
B4: AntpQ9, Antp with deletion of the 9-polyQ stretch (amino acids 110-118), fused to the C-terminal fragment of Venus (natural protein)
chain: not shown
notes: Antennapedia (Antp) with deletion of the 9-polyQ stretch (amino acids 110-118); source: HEK293, transfected, in living cells
B5: AntpQ6, Antp with deletion of three glutamines (amino acids 150-152) and substitution of three glutamines to alanines (amino acids 153-155), fused to the … (natural protein)
chain: not shown
notes: Antennapedia (Antp) with deletion of three glutamines (150-152) and three glutamines changed to alanines (153-155); source: HEK293, transfected, in living cells
B6: AntpΔPolyQ, Antp with deletion of PolyQ regions (amino acids 66-136), fused to the C-terminal fragment of Venus (natural protein)
chain: not shown
notes: Antennapedia (Antp) with deletion of PolyQ regions (amino acids 66-136); source: HEK293, transfected, in living cells
B7: AntpQ5, Antp with the 5-polyQ stretch mutagenized to alanines (amino acids 123-127), fused to the C-terminal fragment of Venus (natural protein)
chain: not shown
notes: Antennapedia (Antp) in which the 5-polyQ stretch was mutagenized to alanines (amino acids 123-127); source: HEK293, transfected, in living cells

In one assay the target is T1, hTBPΔQ40, hTBP lacking the …. As to the kind of experiment: split reporter (BiFC, NanoBiT); BiFC in HEK293 cells co-transfected with VC- and VN- constructs and pCAG-mCherry; read 48 h after transfection; interaction percent = green cells per 100 red cells. The conditions noted are these: partners not purified.
As to B1, the “percent of transfected cells showing BiFC” value (“percent” below) amounted to 14%. On the same count and under the same terms, with B2 the figure was 41%.

The next assay has as its target T2, TATA-binding protein (hTBP), fused to the N-terminal fragment of Venus (human, UniProt P20226 1-339).
T2 construct: also called VNTBP; source: HEK293, transfected, in living cells
The description is as above. To be noted: partners not purified.
As to B3, the “percent” value came to 74%. Still for that read-out and setting: the result for B4 reads 57%. Regarding B1, the “percent” value is 51%. B5: the “percent” value is 63%. Same read-out and setting: the result for B6 reads 51%; that for B2, 77%; that for B7, 74%.

The record behind these values is PMC9150345, “Trimeric complexes of Antp-TBP with TFIIEβ or Exd modulate transcriptional activity” (Hereditas, 2022).
